Source: publication PMC11908827, “PpERF17 alleviates peach fruit postharvest chilling injury under elevated CO2 by activating jasmonic acid and γ-aminobutyric acid biosynthesis”

Legend:
[1] = target: T1, PpERF17 (Prunus persica (peach), cv. …, UniProt M5W9J0 1-215); assay: EMSA; cold probe 50x/500x competes; Chemiluminescent EMSA Kit (Beyotime); buffer, salt, pH and temperature not stated; settings: protein: recombinant; tags: GST (N-terminal, pGEX-4T-1); label: biotin; blunt
T1 sequence: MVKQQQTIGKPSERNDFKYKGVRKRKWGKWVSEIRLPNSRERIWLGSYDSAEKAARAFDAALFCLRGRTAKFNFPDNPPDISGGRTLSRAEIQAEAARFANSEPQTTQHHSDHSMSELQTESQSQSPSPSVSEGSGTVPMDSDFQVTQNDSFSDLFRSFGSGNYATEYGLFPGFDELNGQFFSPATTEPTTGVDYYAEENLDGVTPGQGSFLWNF

[2] = target: T1, PpERF17; assay: EMSA; Chemiluminescent EMSA Kit (Beyotime); buffer, salt, pH and temperature not stated; settings: protein: recombinant, tags: GST (N-terminal, pGEX-4T-1), label: biotin

Binder | binding result [1] | binding result ([2]; blunt) | further results
PpERF17-Pp13S-LOX probe (dsDNA) DNA 1: TCTTAAAAACGTGTGGACGGTGAGATCAACAGTACCC DNA 2: GGGTACTGTTGATCTCACCGTCCACACGTTTTTAAGA | binds | – | –
PpERF17-Pp13S-LOX mutant probe (dsDNA) DNA 1: TCTTAAAAACGTGAAAAAAAAAAGATCAACAGTACCC DNA 2: GGGTACTGTTGATCTTTTTTTTTTCACGTTTTTAAGA | – | no binding | –
PpERF17-PpAOS probe (dsDNA) DNA 1: ATGGTTCATGTACCCCACCGTCTTCACACTCACCTTC DNA 2: GAAGGTGAGTGTGAAGACGGTGGGGTACATGAACCAT | binds | – | –
PpERF17-PpAOS mutant probe (dsDNA) DNA 1: ATGGTTCATGTACCCTTTTTTTTTCACACTCACCTTC DNA 2: GAAGGTGAGTGTGAAAAAAAAAGGGTACATGAACCAT | – | no binding | –
PpERF17-PpOPR3 probe (dsDNA) DNA 1: TAGAAACCAAAACGACACCGGCCATAAATAAATCCGC DNA 2: GCGGATTTATTTATGGCCGGTGTCGTTTTGGTTTCTA | binds | – | –
PpERF17-PpOPR3 mutant probe (dsDNA) DNA 1: TAGAAACCAAAACGATTTTTTTTTTAAATAAATCCGC DNA 2: GCGGATTTATTTAAAAAAAAAATCGTTTTGGTTTCTA | – | no binding | –
PpERF17-PpGAD probe (dsDNA) DNA 1: CATAAGGTCGGAAGGCACCGTCCATGTTCCAACTTGG DNA 2: CCAAGTTGGAACATGGACGGTGCCTTCCGACCTTATG | binds | – | –
PpERF17-PpGAD mutant probe (dsDNA) DNA 1: CATAAAAAAAAAAGGTTTTTTTTTGTTCCAACTTGG DNA 2: CCAAGTTGGAACAAAAAAAAAACCTTTTTTTTTATG | – | – | binding result [2]: no binding
